Data set [1] addresses SAFB2 SAP domain (21-70), wild type (human) (UniProt Q14151). Nature of the data set: SEC; preparative size exclusion on HiLoad 16/600 SD 75 in 25 mM sodium phosphate, 150 mM NaCl, 0.02% NaN3, pH 6.5; size from calibration. (Size exclusion chromatography separates by hydrodynamic size, large species first.)
Data set [2] concerns the target T1, SAFB2 SAP WT (21-70) (Homo sapiens, UniProt Q14151 21-70).
T1 chain: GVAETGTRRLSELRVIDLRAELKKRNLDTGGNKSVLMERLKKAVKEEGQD
Nature of the data set: NMR titration; CSP as for 16mer; NMR: 20 mM BisTris, 150 mM NaCl, pH 6.5, 5% D2O, 298 K (RRM plus 2 mM TCEP). EMSA: 25 mM sodium phosphate, 150 mM NaCl, 0.02% NaN3, pH 6.5, 10 mM MgCl2, 0.6 ug. Particulars: protein: recombinant; tags: N-terminal GAM left after TEV cleavage (His6-Trx removed); blunt.

The next data set deals with T2, SAFB2 SAP K53A/S54A (Homo sapiens, UniProt Q14151 21-70, K53A;S54A).
T2 chain: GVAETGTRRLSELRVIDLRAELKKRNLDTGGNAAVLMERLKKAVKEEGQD
Nature of the data set: NMR titration; 6x DNA; no significant CSPs; NMR: 20 mM BisTris, 150 mM NaCl, pH 6.5, 5% D2O, 298 K (RRM plus 2 mM TCEP). EMSA: 25 mM sodium phosphate, 150 mM NaCl, 0.02% NaN3, pH 6.5, 10 mM MgCl2, 0.6 ug. Particulars: protein: recombinant; tags: N-terminal GAM left after TEV cleavage; blunt. (Mobility shift assays separate free from complexed probe on a gel.)

For data set [3], the target named is T3, SAFB2 RRM (404-485) (Homo sapiens, UniProt Q14151 404-485). Nature of the data set: NMR titration; CSPs equal to A7/C7; NMR: 20 mM BisTris, 150 mM NaCl, pH 6.5, 5% D2O, 298 K (RRM plus 2 mM TCEP). EMSA: 25 mM sodium phosphate, 150 mM NaCl, 0.02% NaN3, pH 6.5, 10 mM MgCl2, 0.6 ug. Particulars: protein: recombinant; tags: N-terminal GAM left after TEV cleavage (His6-Trx removed); blunt.

Data set [4] deals with T3, SAFB2 RRM (404-485). Nature of the data set: NMR titration; significant CSPs of RNP residues; NMR: 20 mM BisTris, 150 mM NaCl, pH 6.5, 5% D2O, 298 K (RRM plus 2 mM TCEP). EMSA: 25 mM sodium phosphate, 150 mM NaCl, 0.02% NaN3, pH 6.5, 10 mM MgCl2, 0.6 ug. The conditions noted are these: protein: recombinant; tags: N-terminal GAM left after TEV cleavage (His6-Trx removed).

The target of data set [5] is T1, SAFB2 SAP WT (21-70). Kind of data set: EMSA; 0-40 uM SAP; yeast tRNA, 10 mM MgCl2; slight preference for AT over GC; apparent micromolar affinity; NMR: 20 mM BisTris, 150 mM NaCl, pH 6.5, 5% D2O, 298 K (RRM plus 2 mM TCEP). EMSA: 25 mM sodium phosphate, 150 mM NaCl, 0.02% NaN3, pH 6.5, 10 mM MgCl2, 0.6 ug. Particulars: protein: recombinant; tags: N-terminal GAM left after TEV cleavage (His6-Trx removed); label: 5'-6-FAM on fw strand; blunt.

The target of data set [6] is T1, SAFB2 SAP WT (21-70). Kind of data set: NMR titration; up to 6x DNA; fast exchange; NMR: 20 mM BisTris, 150 mM NaCl, pH 6.5, 5% D2O, 298 K (RRM plus 2 mM TCEP). EMSA: 25 mM sodium phosphate, 150 mM NaCl, 0.02% NaN3, pH 6.5, 10 mM MgCl2, 0.6 ug. The conditions noted are these: protein: recombinant; tags: N-terminal GAM left after TEV cleavage (His6-Trx removed); blunt.

T3 sequence (Q14151 404-485): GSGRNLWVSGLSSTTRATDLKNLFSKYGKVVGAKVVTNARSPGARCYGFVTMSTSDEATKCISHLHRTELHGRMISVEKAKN

Turning to “SAFB2 SAP domain (21-70), wild type (from UniProt Q14151 21-70) (domain or fragment)”, the stoichiometry N (usually the number of molecules, sites or subunits per partner or assembly) in data set [1] worked out at 2.

B1: dsAT9mer (dsDNA)
DNA 1: CAATATAAC
DNA 2: GTTATATTG
Consider B1, for which the binding result with SAFB2 SAP WT (21-70) [2] is on record as “binds”; with SAFB2 SAP K53A/S54A it was “no binding”.

B2: dsGC16mer (dsDNA)
DNA 1: CGCCCCCGCGCCCGCG
DNA 2: CGCGGGCGCGGGGGCG
On to B2, for which, in the data set with SAFB2 RRM (404-485) [3], the binding result was “binds”.

For CCCCCCC (ssRNA) [C7], in the data set with SAFB2 RRM (404-485) [4], the binding result is “binds”.

On to AAAAAAA (ssRNA) [A7], for which the binding result with SAFB2 RRM (404-485) [4] is “binds”.

B3: dsAT13mer (dsDNA)
DNA 1: GCAATAAATACG
DNA 2: CGTATTTATTGC
For B3, in the data set with SAFB2 SAP WT (21-70) [5], the binding result is “binds”.

B4: dsAT16mer (dsDNA)
DNA 1: GCGCACAATATAACGC
DNA 2: GCGTTATATTGTGCGC
Turning to B4, the binding result with SAFB2 RRM (404-485) [3] and with SAFB2 SAP WT (21-70) [6] was “binds” in each case.

(Values after publication PMC9958909, “Insight into the Structural Basis for Dual Nucleic Acid—Recognition by the Scaffold Attachment Factor B2 Protein”.)
